Measurements from article PMC8115157.

Tests used:
Conditions in all cases: remark: other sources report otherwise
[1] = biological target: T1, full-length human calcium-sensing receptor (CaSR) (human), P41180; assay: cryo-EM structure; single-particle cryo-EM of Ca^2+-free CaSR in DDM/CHS, 20 mM HEPES pH 7.5, 150 mM NaCl, 5 mM EGTA, with 10 mM L-Trp (CaSR^Trp); 4.4 Å
T1 chain: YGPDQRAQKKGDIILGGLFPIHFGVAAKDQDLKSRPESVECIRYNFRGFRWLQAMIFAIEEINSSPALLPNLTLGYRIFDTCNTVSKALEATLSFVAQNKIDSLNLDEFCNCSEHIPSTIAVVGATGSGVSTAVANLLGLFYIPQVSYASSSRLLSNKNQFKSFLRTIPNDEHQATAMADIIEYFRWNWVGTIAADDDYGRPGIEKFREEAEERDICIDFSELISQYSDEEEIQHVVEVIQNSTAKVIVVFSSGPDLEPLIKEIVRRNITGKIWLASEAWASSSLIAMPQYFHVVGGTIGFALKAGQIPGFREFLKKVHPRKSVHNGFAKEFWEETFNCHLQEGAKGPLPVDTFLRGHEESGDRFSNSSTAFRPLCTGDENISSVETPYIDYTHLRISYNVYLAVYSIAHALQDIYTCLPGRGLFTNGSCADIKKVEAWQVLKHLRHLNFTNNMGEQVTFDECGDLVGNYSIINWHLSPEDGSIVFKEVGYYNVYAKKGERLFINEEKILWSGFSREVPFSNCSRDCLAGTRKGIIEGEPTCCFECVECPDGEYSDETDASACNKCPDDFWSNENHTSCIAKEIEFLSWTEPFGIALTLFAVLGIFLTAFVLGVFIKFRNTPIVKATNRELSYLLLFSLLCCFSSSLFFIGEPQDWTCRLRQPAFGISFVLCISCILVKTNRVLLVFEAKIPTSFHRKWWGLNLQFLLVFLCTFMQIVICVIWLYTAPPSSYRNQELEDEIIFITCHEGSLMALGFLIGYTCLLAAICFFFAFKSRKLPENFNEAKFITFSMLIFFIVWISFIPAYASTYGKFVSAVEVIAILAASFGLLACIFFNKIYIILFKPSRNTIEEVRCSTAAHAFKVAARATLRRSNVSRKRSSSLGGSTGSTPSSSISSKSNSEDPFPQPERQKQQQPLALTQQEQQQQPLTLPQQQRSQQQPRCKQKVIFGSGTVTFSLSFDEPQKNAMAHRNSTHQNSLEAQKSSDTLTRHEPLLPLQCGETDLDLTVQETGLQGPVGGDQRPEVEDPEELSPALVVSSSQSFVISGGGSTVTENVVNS

[2] = biological target: T1, full-length human calcium-sensing …; assay: cryo-EM structure; single-particle cryo-EM of CaSR in DDM/CHS, 20 mM HEPES pH 7.5, 150 mM NaCl, with 10 mM L-Trp and 10 mM CaCl2 (active state, CaSR^Acc); 3.5 Å
[3] = biological target: T1, full-length human calcium-sensing …; assay: cryo-EM structure; single-particle cryo-EM of CaSR in DDM/CHS, 20 mM HEPES pH 7.5, 150 mM NaCl, 5 mM EDTA (inactive state; three classes Icc 4.5 Å, Ioc 5.7 Å, Ioo 6.8 Å)
[4] = biological target: T1, full-length human calcium-sensing …; assay: cryo-EM structure; single-particle cryo-EM of CaSR in DDM/CHS, 20 mM HEPES pH 7.5, 150 mM NaCl, 20 mM CaCl2 (three classes: closed-closed CaSR^Ca 3.8 Å, open-closed 5.6 Å, open-open 7.3 Å)

Measured: stoichiometry N

B1: full-length human calcium-sensing receptor (CaSR), P41180 20-1078 (receptor)
chain: T1 chain
modifications: here or on the partner: N-linked glycans (N-acetylglucosamine built) at N261, N287, N446, N468, N488 and N541; N-linked glycans (N-acetylglucosamine built) at N261, N287, N446, N468, N488 and N541
2: all assays above
